Measurements taken from patent publication US20240199757A1.
Substitutions are numbered along the chain they refer to. One block for each binder: values may come before it.

Experiments:
[1] = molecular target: T1, human NT5E expressed on MDA-MB-231 cells (human) (UniProt P21589); experiment: cell-based or functional assay
T1 sequence (looked up): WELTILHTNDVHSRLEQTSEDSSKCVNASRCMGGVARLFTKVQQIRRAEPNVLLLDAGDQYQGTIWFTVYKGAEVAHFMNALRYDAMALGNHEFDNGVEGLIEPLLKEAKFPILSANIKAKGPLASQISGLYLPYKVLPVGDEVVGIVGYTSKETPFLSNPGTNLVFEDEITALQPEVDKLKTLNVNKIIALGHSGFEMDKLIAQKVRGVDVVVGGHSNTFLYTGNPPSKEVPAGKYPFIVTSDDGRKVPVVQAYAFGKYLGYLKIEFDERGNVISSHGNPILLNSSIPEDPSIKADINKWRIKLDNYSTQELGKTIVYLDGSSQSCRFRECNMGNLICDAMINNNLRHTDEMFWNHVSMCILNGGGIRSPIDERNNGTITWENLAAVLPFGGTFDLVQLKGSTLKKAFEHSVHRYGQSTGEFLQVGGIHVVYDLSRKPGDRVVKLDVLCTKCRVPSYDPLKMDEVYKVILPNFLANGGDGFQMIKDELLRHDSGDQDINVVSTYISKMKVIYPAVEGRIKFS

[2] = molecular target: T2, murine NT5E expressed on 4T1 cells (murine) (UniProt Q61503); experiment: cell-based or functional assay
T2 sequence (looked up): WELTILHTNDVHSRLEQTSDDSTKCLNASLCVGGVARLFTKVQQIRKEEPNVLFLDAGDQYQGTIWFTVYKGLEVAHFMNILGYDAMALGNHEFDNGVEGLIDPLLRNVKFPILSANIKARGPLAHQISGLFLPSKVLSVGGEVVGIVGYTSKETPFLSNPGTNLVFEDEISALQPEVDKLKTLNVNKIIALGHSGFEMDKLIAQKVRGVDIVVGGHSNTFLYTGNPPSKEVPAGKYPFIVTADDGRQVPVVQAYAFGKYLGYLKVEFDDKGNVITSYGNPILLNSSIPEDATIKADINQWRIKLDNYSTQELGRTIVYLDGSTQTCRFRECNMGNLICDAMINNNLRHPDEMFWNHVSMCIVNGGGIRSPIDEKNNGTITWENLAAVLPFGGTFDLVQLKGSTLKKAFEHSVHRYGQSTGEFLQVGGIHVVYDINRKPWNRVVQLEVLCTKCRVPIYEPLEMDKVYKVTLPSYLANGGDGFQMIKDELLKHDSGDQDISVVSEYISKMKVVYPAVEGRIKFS

[3] = molecular target: hNT5EFF (F417A/F500A mutant of hNT5E) (human); experiment: DSF thermal shift, 1.5-fold molar excess of Fab, 1 mM ATP (hNT5EFF alone 47° C.)
[4] = molecular target: hNT5EFF (F417A/F500A mutant of hNT5E) (human); experiment: DSF thermal shift, 1.5-fold molar excess of Fab, no ATP (hNT5EFF alone 47° C.)

B1: 1789 AM39 IgG (antibody, V domains shown)
VH: EVQLVESGGGLVQPGGSLRLSCAASGFNVSYSSIHWVRQAPGKGLEWVASIRGAGSDTRYADSVKGRFTISADTSKNTAYLQMNSLRAEDTAVYYCARNYWGWYPFYYFAFDYWGQGTLVTVSS
VL: DIQMTQSPSSLSASVGDRVTITCRASQSVSSAVAWYQQKPGKAPKLLIYSASSLYSGVPSRFSGSRSGTDFTLTISSLQPEDFATYYCQQGWDYPITFGQGTKVEIKR
- IC50 of NT5E activity on MDA-MB-231 cells, no ATP [1]: 6.9 nM
- IC50 of NT5E activity on MDA-MB-231 cells, with ATP [1]: 2.5 nM
- IC50 of NT5E activity on 4T1 cells, with ATP [2]: 12.7 nM

B3: 1789 AM32 IgG (antibody, V domains shown)
VH: B1 VH with S50R, A54N, G55E, S56G, R59Y
VL: B1 VL
- IC50 of NT5E activity on MDA-MB-231 cells, no ATP [1]: 5.6 nM
- IC50 of NT5E activity on MDA-MB-231 cells, with ATP [1]: 2.3 nM
- IC50 of NT5E activity on 4T1 cells, with ATP [2]: 9.1 nM

The next lines start with the values.

- IC50 of NT5E activity on MDA-MB-231 cells, no ATP [1]: 5.4 nM
- IC50 of NT5E activity on MDA-MB-231 cells, with ATP [1]: 1.9 nM
- IC50 of NT5E activity on 4T1 cells, with ATP [2]: 8.8 nM
B2: 1789 AM42 IgG (antibody, V domains shown)
VH: B1 VH with S50K, A54G, G55H, S56Q, R59H
VL: B1 VL

- TM of NT5E in the presence of the Fab [3]: 46 ° C.
- TM of NT5E in the presence of the Fab [4]: 47 ° C.
B4: 1789 Fab (Fab, V domains shown)
VH: EVQLVESGGGLVQPGGSLRLSCAASGFNVSYSSIHWVRQAPGKGLEWVASISSSSGYTYYADSVKGRFTISADTSKNTAYLQMNSLRAEDTAVYYCARNYWGWYPFYYFAFDYWGQGTLVTV
VL: B1 VL
